Reference: publication PMC7691336
Several values for one entry are separate records, joined by “and”; a condition that tells them apart may be missing. Equal values may be shown once.

What was measured:
[1] = biological target: cardiac ryanodine receptor (RyR2) V3599K, knock-in mouse heart (mouse (endogenous in cardiac homogenates)) (UniProt E9Q401); assay: cross-linking; CaM-SANPAH at rising concentrations (to 1024 nM; also 3000) mixed with mouse cardiac homogenates (1 mg/mL) in 150 mmol/L KCl, 10 umol/L CaCl2, 20 mmol/L MES pH 6.8; 10 min binding, UV cross-linking, anti-CaM blot of the 550 kDa band; binding as ratio to the maximum; one Kd for each heart; hearts of sham-operated mice
[2] = biological target: cardiac ryanodine receptor (RyR2), wild type, mouse heart (mouse (endogenous in cardiac homogenates)) (UniProt E9Q401); assay: as above
[3] = biological target: cardiac ryanodine receptor (RyR2) V3599K, knock-in mouse heart (mouse (endogenous in cardiac homogenates)) (UniProt E9Q401); assay: cross-linking; CaM-SANPAH at rising concentrations (to 1024 nM; also 3000) mixed with mouse cardiac homogenates (1 mg/mL) in 150 mmol/L KCl, 10 umol/L CaCl2, 20 mmol/L MES pH 6.8; 10 min binding, UV cross-linking, anti-CaM blot of the 550 kDa band; binding as ratio to the maximum; one Kd for each heart; hearts 2 weeks after transverse aortic constriction (TAC 2W)
[4] = biological target: cardiac ryanodine receptor (RyR2), wild type, mouse heart (mouse (endogenous in cardiac homogenates)) (UniProt E9Q401); assay: as above

## CaM-SANPAH conjugate (recombinant calmodulin) (from UniProt P0DP23 1-149) (natural protein)
[1]
  Kd: 47.4 nM and 51.6 nM (2×) and 74.2 nM
[2]
  Kd: 61.4 nM and 66.9 nM and 54.7 nM (2×)
[3]
  Kd: 55.9 nM and 44.2 nM and 82.9 nM
[4]
  Kd: 118 nM and 151 nM and 139 nM
